Assays:
MMP-2 = target: T1, MMP-2 (Homo sapiens, UniProt P08253); experiment: Cleavage of recombinant Eph receptor-Fc fusion proteins, SDS-PAGE; type: biochemical; conditions: 1.8 μM fusion protein, 280 nM MMP-2, 4 hours, 37° C.
T1 construct: the cDNA encoding the catalytic domain of MMP-2 was generated by PCR; made in house; host or cells: HEK 293 cells
Protocol: (§1) Recombinant fusion proteins between EphB1, EphB2 and the Fc domain of IgG were purchased from R&D Systems Inc. In these constructs, the extracellular domain of rat EphB1 (amino acid residues 1-538) and mouse EphB2 (amino acid residues 1-548) are fused to the Fc region of human IgG via a short polypeptide linker. The fusion proteins (1.8 μM) were incubated for 4 hours at 37° C. with 280 nM of either MMP-2 or MMP-9. Following incubation, samples were resolved by 10% SDS-PAGE, and samples were visualized by Coomassie staining. The N-terminus of the cleaved Eph B1 was determined by automated Edman degradation of protein blotted to PVDF membranes.
(§2) The Eph B1 and Eph B2 fusion proteins were incubated with equimolar amounts (280 nM) of MMP-2 and MMP-9 for four hours. The extent of hydrolysis was gauged by SDS-PAGE (FIG. 3). […] The extent of cleavage by MMP-9 was far lower (lane 3). […] The site of hydrolysis within Eph B1 was determined by sequencing the N-terminus of one of the released fragments. […] This is one of the predicted cleavage sites in EphB1. These findings illustrate that motifs found to be selective for MMP-2 by substrate phage display, can act as selective substrates within the context of whole proteins. This experiment also illustrates that the three dimensional conformation of the putative cleavage site will also control the extent of hydrolysis.

MMP-9 = target: T2, MMP-9 (Homo sapiens, UniProt P14780); experiment: as above; type: biochemical; conditions: 1.8 μM fusion protein, 280 nM MMP-9, 4 hours, 37° C.
T2 construct: a recombinant form of the catalytic domain of MMP-9 expressed in HEK 293 cells; made in house; host or cells: HEK 293 cells
Protocol: as §1, §2

T2 sequence (P14780 94-444 limits assumed): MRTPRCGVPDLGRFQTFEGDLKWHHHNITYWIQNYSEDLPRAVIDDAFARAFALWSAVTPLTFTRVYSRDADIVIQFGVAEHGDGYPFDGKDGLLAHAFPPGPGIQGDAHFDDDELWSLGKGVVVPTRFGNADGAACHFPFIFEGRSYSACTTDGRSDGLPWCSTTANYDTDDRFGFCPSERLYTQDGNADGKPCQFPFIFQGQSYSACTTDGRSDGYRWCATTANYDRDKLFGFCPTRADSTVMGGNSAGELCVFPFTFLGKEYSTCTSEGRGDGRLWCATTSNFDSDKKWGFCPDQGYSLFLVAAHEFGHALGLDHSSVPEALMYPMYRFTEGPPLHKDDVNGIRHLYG
T1 sequence (P08253 110-465 limits assumed): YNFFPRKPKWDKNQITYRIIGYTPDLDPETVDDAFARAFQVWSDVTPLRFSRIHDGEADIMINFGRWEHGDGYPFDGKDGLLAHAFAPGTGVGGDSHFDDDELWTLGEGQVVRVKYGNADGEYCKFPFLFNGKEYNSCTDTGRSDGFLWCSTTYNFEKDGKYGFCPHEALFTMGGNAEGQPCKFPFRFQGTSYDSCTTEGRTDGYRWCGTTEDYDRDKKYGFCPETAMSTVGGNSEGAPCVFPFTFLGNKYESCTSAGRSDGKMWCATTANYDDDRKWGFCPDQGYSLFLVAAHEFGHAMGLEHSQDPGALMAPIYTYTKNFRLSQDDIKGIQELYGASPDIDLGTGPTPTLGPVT

B1: Eph B2 fusion protein: extracellular domain of mouse EphB2 (residues 1-548) fused to Fc region of human IgG, R&D Systems (protein)
chain: VEETLMDSTTATAELGWMVHPPSGWEEVSGYDENMNTIRTYQVCNVFESSQNNWLRTKFIRRRGAHRIHVEMKFSVRDCSSIPSVPGSCKETFNLYYYEADFDLATKTFPNWMENPWVKVDTIAADESFSQVDLGGRVMKINTEVRSFGPVSRNGFYLAFQDYGGCMSLIAVRVFYRKCPRIIQNGAIFQETLSGAESTSLVAARGSCIANAEEVDVPIKLYCNGDGEWLVPIGRCMCKAGFEAVENGTVCRGCPSGTFKANQGDEACTHCPINSRTTSEGATNCVCRNGYYRADLDPLDMPCTTIPSAPQAVISSVNETSLMLEWTPPRDSGGREDLVYNIICKSCGSGRGACTRCGDNVQYAPRQLGLTEPRIYISDLLAHTQYTFEIQAVNGVTDQSPFSPQFASVNITTNQAAPSAVSIMHQVSRTVDSITLSWSQPDQPNGVILDYELQYYEKELSEYNATAIKSPTNTVTVQGLKAGAIYVFQVRARTVAGYGRYSGKMYFQTMTEAEYQTSIKEKLPLIVGSS
modifications: left off: small tags and cut ends; a dimerising Fc or GST
notes: extracellular domain of mouse EphB2 (residues 1-548) fused to Fc region of human IgG, R&D Systems
How did the “extent of hydrolysis by MMP-2 (SDS-PAGE)” value (MMP-2) turn out when B1 was run?
The value was “Neither protease cleaved”.

What about the “extent of hydrolysis by MMP-9 (SDS-PAGE)” value (MMP-9) of the same molecule?
The value was “Neither protease cleaved”.

From patent US7935785B2, “Selective substrates for matrix metalloproteinases” (Sanford-Burnham Medical Research Institute, priority 2001, dated 2011)
